This is an account of results in patent publication US20260193348A1 (ANTENGENE BIOLOGICS, published 2026).

Test [1] has as its target T1, CD3 on T cells / Jurkat cells (human, UniProt P07766 23-207; P04234 22-171; P09693 23-182).
T1 construct: whole, on cells; Native CD3 complex on CD3+ T cells isolated from normal donors or on Jurkat cells; also called human CD3; CD3+ T cells
The test is described as follows: FACS on Jurkat cells.

In test [2] the target is T2, GPRC5D on MM.1S cells (human, UniProt Q9NZD1 1-345). The test is described as follows: cell-based or functional assay.
T2 sequence (Q9NZD1 whole entry): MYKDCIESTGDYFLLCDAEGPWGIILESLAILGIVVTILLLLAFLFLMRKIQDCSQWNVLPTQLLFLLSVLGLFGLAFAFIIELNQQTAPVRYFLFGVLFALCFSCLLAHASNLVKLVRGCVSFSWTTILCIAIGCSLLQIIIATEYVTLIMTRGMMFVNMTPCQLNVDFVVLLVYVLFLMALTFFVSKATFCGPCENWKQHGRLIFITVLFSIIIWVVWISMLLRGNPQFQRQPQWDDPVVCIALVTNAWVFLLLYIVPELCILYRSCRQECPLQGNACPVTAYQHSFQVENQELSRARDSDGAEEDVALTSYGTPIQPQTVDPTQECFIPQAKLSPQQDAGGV
Test [3] addresses T2, GPRC5D on MM.1S cells. Nature of the test: FACS on MM.1S cells. As for the experimental part:
The binding affinities of the generated humanized Fab-scFv-Fab bispecific antibodies were determined by FACS analysis. […] (a) Jurkat cells were washed by Staining Buffer (PBS+1% BSA) in round bottom 96-well plate. [0833] (b) Antibody dilutions and cells were added to each well, incubated at 4 degrees for 1 hour. [0834] (c) Cells were spined down at 300 g for 3 minutes, and the supernatants were discarded. [0835] (d) Cells were washed with Staining Buffer. […] (e) Step (d) was repeated and the cells were incubated for 0.5 hours at 4 degrees with secondary antibody in Staining Buffer. [0837] (f) After incubation, step (d)-(e) were repeated. […] (g) Staining Buffer was added and fluorescence signals were recorded by flow cytometry.
The binding affinities of the generated humanized Fab-scFv-Fab bispecific antibodies were determined by FACS analysis. The ATG-Bis-40E9 was used as positive control and hIgG1 isotype was used as negative control. The protocol for FACS analysis is identical to that described in Example 3.2, except that MM.1S cells were used in this example.

For test [4], the target named is T2, GPRC5D on MM.1S cells. The test is described as follows: cell-based or functional assay. This is another data set of the same source.

T1 sequence (P07766 23-207, chain 1 of 3): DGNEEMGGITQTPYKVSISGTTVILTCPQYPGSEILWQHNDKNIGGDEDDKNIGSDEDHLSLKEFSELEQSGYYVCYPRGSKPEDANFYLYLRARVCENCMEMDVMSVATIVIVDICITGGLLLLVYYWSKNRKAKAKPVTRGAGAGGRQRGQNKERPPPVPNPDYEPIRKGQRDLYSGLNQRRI
T1 sequence (P04234 22-171, chain 2 of 3): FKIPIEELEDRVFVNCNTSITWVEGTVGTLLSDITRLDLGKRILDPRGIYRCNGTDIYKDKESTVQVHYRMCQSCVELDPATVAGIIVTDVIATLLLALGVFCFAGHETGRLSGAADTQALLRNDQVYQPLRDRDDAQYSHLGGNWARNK
T1 sequence (P09693 23-182, chain 3 of 3): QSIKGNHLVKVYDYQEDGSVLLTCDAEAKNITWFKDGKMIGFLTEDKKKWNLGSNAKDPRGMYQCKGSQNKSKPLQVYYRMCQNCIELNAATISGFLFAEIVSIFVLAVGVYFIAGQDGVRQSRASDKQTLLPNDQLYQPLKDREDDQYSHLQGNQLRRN

B1: Bis-40E9-L2H3-D99E.H (bispecific antibody)
VH: EVQLVQSGAEVKKPGASVKVSCKASGYTFTSYVIHWVRQAPGQGLEWMGYFNPYNDGTKYNEEFKGRVTLTSDKSTSTAYMELRSLRSDDTAVYYCARGGVRRYFDVWGQGTTVTVSS
VL: DIQMTQSPSSLSASVGDRVTITCRASQDIGSNLNWLQQKPGKAIKRLIYATFGLDSGVPSRFSGSRSGTDFTLTISSLQPEDFATYYCQQYASFPYTFGGGTKVEIK
scFv: EVQLVQSGAEVKKPGSSVKVSCKASGYTFSSYVIHWVRQAPGQCLEWMGYINPYNDVIKYNEKFKGRVTLTSDKSTSTAYMELSSLRSEDTAVYYCARESYYSYDGFAYWGQGTLVTVSSGGGGSGGGGSGGGGSGGGGSEIVLTQSPDFQSVTPKEKVTITCSASSSVSYMHWYQQKPDQSPKRLIYDTSKLASGVPSRFSGSGSGTDFTLTINSLEAEDAATYYCQQWSSNPPTFGCGTKVEIK
notes: L234A/L235A
Take B1: the binding result in test [1] is recorded as “binds”.

B2: Bis-40E9-L2H4 (bispecific antibody)
VH: EVQLVQSGAEVKKPGASVKVSCKASGYTFTSYVIHWVRQAPGQGLEWMGYFNPYNDGTKYNEEFKGRVTLTSDKSTSTAYMELRSLRSDDTAVYYCARGGVRRYFDVWGQGTTVTVSS
VL: DIQMTQSPSSLSASVGDRVTITCRASQDIGSNLNWLQQKPGKAIKRLIYATFGLDSGVPSRFSGSRSGTDFTLTISSLQPEDFATYYCQQYASFPYTFGGGTKVEIK
scFv: EVQLVQSGAEVKKPGSSVKVSCKASGYTFSSYVIHWVRQAPGQCLEWIGYINPYNDVIKYNEKFKGRATLTSDKSTSTAYMELSSLRSEDTAVYYCARDSYYSYDGFAYWGQGTLVTVSSGGGGSGGGGSGGGGSGGGGSEIVLTQSPDFQSVTPKEKVTITCSASSSVSYMHWYQQKPDQSPKRLIYDTSKLASGVPSRFSGSGSGTDFTLTINSLEAEDAATYYCQQWSSNPPTFGCGTKVEIK
notes: L234A/L235A
Take B2: the binding result in test [1] was “binds”.

B3: Bis-40E9-L2H3-D56G.H (bispecific antibody)
VH: EVQLVQSGAEVKKPGASVKVSCKASGYTFTSYVIHWVRQAPGQGLEWMGYFNPYNDGTKYNEEFKGRVTLTSDKSTSTAYMELRSLRSDDTAVYYCARGGVRRYFDVWGQGTTVTVSS
VL: DIQMTQSPSSLSASVGDRVTITCRASQDIGSNLNWLQQKPGKAIKRLIYATFGLDSGVPSRFSGSRSGTDFTLTISSLQPEDFATYYCQQYASFPYTFGGGTKVEIK
scFv: EVQLVQSGAEVKKPGSSVKVSCKASGYTFSSYVIHWVRQAPGQCLEWMGYINPYNGVIKYNEKFKGRVTLTSDKSTSTAYMELSSLRSEDTAVYYCARDSYYSYDGFAYWGQGTLVTVSSGGGGSGGGGSGGGGSGGGGSEIVLTQSPDFQSVTPKEKVTITCSASSSVSYMHWYQQKPDQSPKRLIYDTSKLASGVPSRFSGSGSGTDFTLTINSLEAEDAATYYCQQWSSNPPTFGCGTKVEIK
notes: L234A/L235A
B3: the binding result in test [1] was “binds”.

B4: Bis-40E9-L2H3-G106A.H (bispecific antibody)
VH: EVQLVQSGAEVKKPGASVKVSCKASGYTFTSYVIHWVRQAPGQGLEWMGYFNPYNDGTKYNEEFKGRVTLTSDKSTSTAYMELRSLRSDDTAVYYCARGGVRRYFDVWGQGTTVTVSS
VL: DIQMTQSPSSLSASVGDRVTITCRASQDIGSNLNWLQQKPGKAIKRLIYATFGLDSGVPSRFSGSRSGTDFTLTISSLQPEDFATYYCQQYASFPYTFGGGTKVEIK
scFv: EVQLVQSGAEVKKPGSSVKVSCKASGYTFSSYVIHWVRQAPGQCLEWMGYINPYNDVIKYNEKFKGRVTLTSDKSTSTAYMELSSLRSEDTAVYYCARDSYYSYDAFAYWGQGTLVTVSSGGGGSGGGGSGGGGSGGGGSEIVLTQSPDFQSVTPKEKVTITCSASSSVSYMHWYQQKPDQSPKRLIYDTSKLASGVPSRFSGSGSGTDFTLTINSLEAEDAATYYCQQWSSNPPTFGCGTKVEIK
notes: L234A/L235A
On to B4, for which the binding result in test [1] was “binds”.

B5: Bis-40E9-L3H1 (bispecific antibody)
VH: EVQLVQSGAEVKKPGASVKVSCKASGYTFTSYVIHWVRQAPGQGLEWMGYFNPYNDGTKYNEEFKGRVTLTSDKSTSTAYMELRSLRSDDTAVYYCARGGVRRYFDVWGQGTTVTVSS
VL: DIQMTQSPSSLSASVGDRVTITCRASQDIGSNLNWLQQKPGKAIKRLIYATFGLDSGVPSRFSGSRSGTDFTLTISSLQPEDFATYYCQQYASFPYTFGGGTKVEIK
scFv: EVQLVQSGAEVKKPGSSVKVSCKASGGTFSSYVIHWVRQAPGQCLEWMGYINPYNDVIKYNEKFKGRVTITADKSTSTAYMELSSLRSEDTAVYYCARDSYYSYDGFAYWGQGTLVTVSSGGGGSGGGGSGGGGSGGGGSEIVLTQSPDFQSVTPKEKVTITCSASSSVSYMHWYQQKPDQSPKRWIYDTSKLASGVPSRFSGSGSGTDYTLTINSLEAEDAATYYCQQWSSNPPTFGCGTKVEIK
notes: L234A/L235A
Turning to B5, the binding result in test [1] is “binds”.

B6: Bis-40E9-L2H1 (bispecific antibody)
VH: EVQLVQSGAEVKKPGASVKVSCKASGYTFTSYVIHWVRQAPGQGLEWMGYFNPYNDGTKYNEEFKGRVTLTSDKSTSTAYMELRSLRSDDTAVYYCARGGVRRYFDVWGQGTTVTVSS
VL: DIQMTQSPSSLSASVGDRVTITCRASQDIGSNLNWLQQKPGKAIKRLIYATFGLDSGVPSRFSGSRSGTDFTLTISSLQPEDFATYYCQQYASFPYTFGGGTKVEIK
scFv: EVQLVQSGAEVKKPGSSVKVSCKASGGTFSSYVIHWVRQAPGQCLEWMGYINPYNDVIKYNEKFKGRVTITADKSTSTAYMELSSLRSEDTAVYYCARDSYYSYDGFAYWGQGTLVTVSSGGGGSGGGGSGGGGSGGGGSEIVLTQSPDFQSVTPKEKVTITCSASSSVSYMHWYQQKPDQSPKRLIYDTSKLASGVPSRFSGSGSGTDFTLTINSLEAEDAATYYCQQWSSNPPTFGCGTKVEIK
notes: Fab-scFv-Fab (2+1): two humanized anti-GPRC5D Fabs and one anti-CD3 scFv (VH-(GGGGS)4-VL) joined by (GGGGS)2 linkers to CH1 of one Fab and to CH2; L234A/L235A
As to B6, the binding result in test [1] is on record as “binds”.

B7: Bis-108+ch147 (bispecific antibody)
heavy 1: not shown
heavy 2: EVQLVQSGAEVKKPGASVKVSCKASGYTFTSYVIHWVRQAPGQGLEWMGYFNPYNDGTKYNEEFKGRVTLTSDKSTSTAYMELRSLRSDDTAVYYCARGGVRRYFDVWGQGTTVTVSSASTKGPSVFPLAPSSKSTSGGTAALGCLVKDYFPEPVTVSWNSGALTSGVHTFPAVLQSSGLYSLSSVVTVPSSSLGTQTYICNVNHKPSNTKVDKKVEPKSCGGGGSGGGGSQVQLQQPGTELVKPGTSVKLSCKASGYTFTSYWMHWVKQRPGQCLEWIGNINPSNGATNYNEKFKSKATLTVDKSSSTAYMQLSSLTSEDSAVYYCARDRSSQYYFDYWGQGTTLTVSSGGGGSGGGGSGGGGSGGGGSDIVMSQSPSSLAVSAGEKVTMSCKSSQSLLNSRSRKNYLAWYQQKPGQSPKLLIYWASTRESGVPDRFTGSGSGTDFTLTISSVQAEDLAVYYCTQSYTLRTFGCGTKLEIKGGGGSGGGGSDKTHTCPPCPAPEAAGGPSVFLFPPKPKDTLMISRTPEVTCVVVDVSHEDPEVKFNWYVDGVEVHNAKTKPREEQYNSTYRVVSVLTVLHQDWLNGKEYKCKVSNKALPAPIEKTISKAKGQPREPQVCTLPPSREEMTKNQVSLSCAVKGFYPSDIAVEWESNGQPENNYKTTPPVLDSDGSFFLVSKLTVDKSRWQQGNVFSCSVMHEALHNHYTQKSLSLSPGK
light: DIQMTQSPSSLSASVGDRVTITCRASQDIGSNLNWLQQKPGKAIKRLIYATFGLDSGVPSRFSGSRSGTDFTLTISSLQPEDFATYYCQQYASFPYTFGGGTKVEIKRTVAAPSVFIFPPSDEQLKSGTASVVCLLNNFYPREAKVQWKVDNALQSGNSQESVTEQDSKDSTYSLSSTLTLSKADYEKHKVYACEVTHQGLSSPVTKSFNRGEC
notes: Fab-scFv-Fab format
What is called EC50 is the concentration needed to bring the measured effect to its halfway point. A lower EC50 goes with higher potency in that assay. In the case of B7, in the test with GPRC5D on MM.1S cells [2], the “IC50 of T-cell dependent cytotoxicity on MM.1S cells” value turned out to be 0.53 nM and the “Top (%) target cell killing, MM.1S cells” value came out at 99.4%. In the test with GPRC5D on MM.1S cells [3], this molecule showed an EC50 of 2.61 nM and a Top signal of 2260 MFI. Also, in the test with GPRC5D on MM.1S cells [4], the “EC50, Jurkat-NFAT-Luciferase assay in the presence of MM.1S cells” value was 0.11 nM and the “Top RLU, Jurkat-NFAT-Luciferase assay in the presence of MM.1S cells” value amounted to 368 RLU.

B8: Bis-108+147-R35S.L (bispecific antibody)
heavy 1: not shown
heavy 2: EVQLVQSGAEVKKPGASVKVSCKASGYTFTSYVIHWVRQAPGQGLEWMGYFNPYNDGTKYNEEFKGRVTLTSDKSTSTAYMELRSLRSDDTAVYYCARGGVRRYFDVWGQGTTVTVSSASTKGPSVFPLAPSSKSTSGGTAALGCLVKDYFPEPVTVSWNSGALTSGVHTFPAVLQSSGLYSLSSVVTVPSSSLGTQTYICNVNHKPSNTKVDKKVEPKSCGGGGSGGGGSEVQLVQSGAEVKKPGSSVKVSCKASGYTFTSYWMHWVRQAPGQCLEWMGNINPSSGATNYNEKFKSRVTLTVDKSTSTAYMELSSLRSEDTAVYYCARDRSSQYYFDYWGQGTTVTVSSGGGGSGGGGSGGGGSGGGGSDIVMTQSPDSLAVSLGERATINCKSSQSLLNSRSSKNYLAWYQQKPGQPPKLLIYWASTRESGVPDRFSGSGSGTDFTLTISSLQAEDVAVYYCTQSYTLRTFGCGTKVEIKGGGGSGGGGSDKTHTCPPCPAPEAAGGPSVFLFPPKPKDTLMISRTPEVTCVVVDVSHEDPEVKFNWYVDGVEVHNAKTKPREEQYNSTYRVVSVLTVLHQDWLNGKEYKCKVSNKALPAPIEKTISKAKGQPREPQVCTLPPSREEMTKNQVSLSCAVKGFYPSDIAVEWESNGQPENNYKTTPPVLDSDGSFFLVSKLTVDKSRWQQGNVFSCSVMHEALHNHYTQKSLSLSPGK
light: DIQMTQSPSSLSASVGDRVTITCRASQDIGSNLNWLQQKPGKAIKRLIYATFGLDSGVPSRFSGSRSGTDFTLTISSLQPEDFATYYCQQYASFPYTFGGGTKVEIKRTVAAPSVFIFPPSDEQLKSGTASVVCLLNNFYPREAKVQWKVDNALQSGNSQESVTEQDSKDSTYSLSSTLTLSKADYEKHKVYACEVTHQGLSSPVTKSFNRGEC
notes: Fab-scFv-Fab format
With B8, in the test with GPRC5D on MM.1S cells [2], the “IC50 of T-cell dependent cytotoxicity on MM.1S cells” value worked out at 1.64 nM and the “Top (%) target cell killing, MM.1S cells” value came to 102%. In the test with GPRC5D on MM.1S cells [3], this molecule yielded an EC50 of 1.53 nM and a Top signal of 1860 MFI. Moreover, in the test with GPRC5D on MM.1S cells [4], the “EC50, Jurkat-NFAT-Luciferase assay in the presence of MM.1S cells” value was found to be 1.87 nM and the “Top RLU, Jurkat-NFAT-Luciferase assay in the presence of MM.1S cells” value stood at 344 RLU.
